B1: Microtubule-associated tumor suppressor candidate 2 (Homo sapiens), Q5JR59-3 (parent)
chain: MGHCCCKPYNCLQCLDKTNESALVKEKELSIELANIRDEVAFHTAKCEKLQKEKEELERRFEDEVKRLGWQQQAELQELEERLQLQFEAEMARLQEEHGDQLLSIRCQHQEQVEDLTASHDAALLEMENNHTVAITILQDDHDHKVQELMSTHELEKKELEENFEKLRLSLQDQVDTLTFQSQSLRDRARRFEEALRKNTEEQLEIALAPYQHLEEDMKSLKQVLEMKNQQIHEQEKKILELEKLAEKNIILEEKIQVLQQQNEDLKARIDQNTVVTRQLSEENANLQEYVEKETQEKKRLSRTNEELLWKLQTGDPTSPIKLSPTSPVYRGSSSGPSSPARVSTTPR
partner: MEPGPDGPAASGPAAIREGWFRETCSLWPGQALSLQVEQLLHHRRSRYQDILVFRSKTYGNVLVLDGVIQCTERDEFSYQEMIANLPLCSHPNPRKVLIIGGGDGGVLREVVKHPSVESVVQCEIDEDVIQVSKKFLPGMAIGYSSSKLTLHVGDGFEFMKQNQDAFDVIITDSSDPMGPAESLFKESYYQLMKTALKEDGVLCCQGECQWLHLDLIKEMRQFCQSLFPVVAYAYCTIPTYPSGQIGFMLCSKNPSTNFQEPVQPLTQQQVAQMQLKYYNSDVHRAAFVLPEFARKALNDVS
B2: Protein FAM168A (Homo sapiens), Q92567 (parent)
chain: MNPVYSPVQPGAPYGNPKNMAYTGYPTAYPAAAPAYNPSLYPTNSPSYAPEFQFLHSAYATLLMKQAWPQNSSSCGTEGTFHLPVDTGTENRTYQASSAAFRYTAGTPYKVPPTQSNTAPPPYSPSPNPYQTAMYPIRSAYPQQNLYAQGAYYTQPVYAAQPHVIHHTTVVQPNSIPSAIYPAPVAAPRTNGVAMGMVAGTTMAMSAGTLLTTPQHTAIGAHPVSMPTYRAQGTPAYSYVPPHW
B3: Vesicle transport through interaction with t-SNAREs homolog 1B (Homo sapiens), Q9UEU0 (parent)
chain: MASSAASSEHFEKLHEIFRGLHEDLQGVPERLLGTAGTEEKKKLIRDFDEKQQEANETLAEMEEELRYAPLSFRNPMMSKLRNYRKDLAKLHREVRSTPLTATPGGRGDMKYGIYAVENEHMNRLQSQRAMLLQGTESLNRATQSIERSHRIATETDQIGSEIIEELGEQRDQLERTKSRLVNTSENLSKSRKILRSMSRKVTTNKLLLSIIILLELAILGGLVYYKFFRSH
partner: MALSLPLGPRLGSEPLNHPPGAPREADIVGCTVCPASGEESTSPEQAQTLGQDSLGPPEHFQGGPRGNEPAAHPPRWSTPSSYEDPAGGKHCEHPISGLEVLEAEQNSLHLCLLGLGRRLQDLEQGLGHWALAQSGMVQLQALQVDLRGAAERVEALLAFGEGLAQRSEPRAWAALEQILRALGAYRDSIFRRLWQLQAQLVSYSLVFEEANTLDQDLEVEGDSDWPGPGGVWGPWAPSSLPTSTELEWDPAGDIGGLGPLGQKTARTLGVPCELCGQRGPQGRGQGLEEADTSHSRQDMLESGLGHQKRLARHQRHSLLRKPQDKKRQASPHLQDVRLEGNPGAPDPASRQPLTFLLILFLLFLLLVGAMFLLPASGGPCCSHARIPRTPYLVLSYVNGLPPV
B4: Splicing factor 45 (Homo sapiens), Q96I25 (parent)
chain: MSLYDDLGVETSDSKTEGWSKNFKLLQSQLQVKKAALTQAKSQRTKQSTVLAPVIDLKRGGSSDDRQIVDTPPHVAAGLKDPVPSGFSAGEVLIPLADEYDPMFPNDYEKVVKRQREERQRQRELERQKEIEEREKRRKDRHEASGFARRPDPDSDEDEDYERERRKRSMGGAAIAPPTSLVEKDKELPRDFPYEEDSRPRSQSSKAAIPPPVYEEQDRPRSPTGPSNSFLANMGGTVAHKIMQKYGFREGQGLGKHEQGLSTALSVEKTSKRGGKIIVGDATEKDASKKSDSNPLTEILKCPTKVVLLRNMVGAGEVDEDLEVETKEECEKYGKVGKCVIFEIPGAPDDEAVRIFLEFERVESAIKAVVDLNGRYFGGRVVKACFYNLDKFRVLDLAEQV
B5: cGMP-dependent protein kinase 1 (Homo sapiens), Q13976 (parent)
chain: MSELEEDFAKILMLKEERIKELEKRLSEKEEEIQELKRKLHKCQSVLPVPSTHIGPRTTRAQGISAEPQTYRSFHDLRQAFRKFTKSERSKDLIKEAILDNDFMKNLELSQIQEIVDCMYPVEYGKDSCIIKEGDVGSLVYVMEDGKVEVTKEGVKLCTMGPGKVFGELAILYNCTRTATVKTLVNVKLWAIDRQCFQTIMMRTGLIKHTEYMEFLKSVPTFQSLPEEILSKLADVLEETHYENGEYIIRQGARGDTFFIISKGTVNVTREDSPSEDPVFLRTLGKGDWFGEKALQGEDVRTANVIAAEAVTCLVIDRDSFKHLIGGLDDVSNKAYEDAEAKAKYEAEAAFFANLKLSDFNIIDTLGVGGFGRVELVQLKSEESKTFAMKILKKRHIVDTRQQEHIRSEKQIMQGAHSDFIVRLYRTFKDSKYLYMLMEACLGGELWTILRDRGSFEDSTTRFYTACVVEAFAYLHSKGIIYRDLKPENLILDHRGYAKLVDFGFAKKIGFGKKTWTFCGTPEYVAPEIILNKGHDISADYWSLGILMYELLTGSPPFSGPDPMKTYNIILRGIDMIEFPKKIAKNAANLIKKLCRDNPSERLGNLKNGVKDIQKHKWFEGFNWEGLRKGTLTPPIIPSVASPTDTSNFDSFPEDNDEPPPDDNSGWDIDF
partner: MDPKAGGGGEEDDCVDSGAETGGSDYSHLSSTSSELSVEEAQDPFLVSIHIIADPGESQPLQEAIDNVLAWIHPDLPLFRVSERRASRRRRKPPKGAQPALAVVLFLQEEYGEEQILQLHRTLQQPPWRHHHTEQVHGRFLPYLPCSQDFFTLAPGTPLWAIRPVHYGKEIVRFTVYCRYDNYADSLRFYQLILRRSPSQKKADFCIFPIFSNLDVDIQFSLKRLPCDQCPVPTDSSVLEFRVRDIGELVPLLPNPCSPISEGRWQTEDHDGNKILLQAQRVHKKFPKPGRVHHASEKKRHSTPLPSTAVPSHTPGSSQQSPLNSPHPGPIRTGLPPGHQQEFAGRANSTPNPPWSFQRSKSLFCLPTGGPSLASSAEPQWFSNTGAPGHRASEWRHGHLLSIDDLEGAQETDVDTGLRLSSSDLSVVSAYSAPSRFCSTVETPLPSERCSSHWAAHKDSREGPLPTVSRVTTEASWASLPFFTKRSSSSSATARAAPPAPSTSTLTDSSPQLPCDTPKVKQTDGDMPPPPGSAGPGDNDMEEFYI
B6: Methylthioribulose-1-phosphate dehydratase (Homo sapiens), Q96GX9 (parent)
chain: MSGCDAREGDCCSRRCGAQDKEHPRYLIPELCKQFYHLGWVTGTGGGISLKHGDEIYIAPSGVQKERIQPEDMFVCDINEKDISGPSPSKKLKKSQCTPLFMNAYTMRGAGAVIHTHSKAAVMATLLFPGREFKITHQEMIKGIKKCTSGGYYRYDDMLVVPIIENTPEEKDLKDRMAHAMNEYPDSCAVLVRRHGVYVWGETWEKAKTMCECYDYLFDIAVSMKKVGLDPSQLPVGENGIV
partner: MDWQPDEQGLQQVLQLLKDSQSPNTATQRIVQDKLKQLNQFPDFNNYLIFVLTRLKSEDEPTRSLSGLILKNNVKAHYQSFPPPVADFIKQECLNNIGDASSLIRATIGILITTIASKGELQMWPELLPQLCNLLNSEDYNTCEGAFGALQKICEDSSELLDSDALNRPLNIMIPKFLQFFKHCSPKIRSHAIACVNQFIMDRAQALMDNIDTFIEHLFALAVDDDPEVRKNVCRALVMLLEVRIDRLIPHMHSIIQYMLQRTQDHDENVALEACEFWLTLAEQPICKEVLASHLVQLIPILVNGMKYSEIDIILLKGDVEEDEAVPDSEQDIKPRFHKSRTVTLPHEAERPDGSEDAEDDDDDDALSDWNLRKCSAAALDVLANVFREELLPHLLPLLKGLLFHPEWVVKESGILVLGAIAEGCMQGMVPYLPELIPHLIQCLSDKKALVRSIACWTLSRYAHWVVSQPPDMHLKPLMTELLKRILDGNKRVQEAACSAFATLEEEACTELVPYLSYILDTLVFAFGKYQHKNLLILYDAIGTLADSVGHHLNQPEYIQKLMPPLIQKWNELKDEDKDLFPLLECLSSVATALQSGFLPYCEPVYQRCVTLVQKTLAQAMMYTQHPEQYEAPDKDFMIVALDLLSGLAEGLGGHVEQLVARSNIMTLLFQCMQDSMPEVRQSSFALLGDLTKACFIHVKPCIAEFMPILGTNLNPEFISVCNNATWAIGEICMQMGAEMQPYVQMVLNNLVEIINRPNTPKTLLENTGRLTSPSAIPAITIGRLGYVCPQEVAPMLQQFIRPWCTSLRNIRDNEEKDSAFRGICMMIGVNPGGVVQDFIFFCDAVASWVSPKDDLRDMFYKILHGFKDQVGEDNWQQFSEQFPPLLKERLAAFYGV
B7: Thioredoxin-dependent peroxide reductase, mitochondrial (Homo sapiens), P30048 (parent)
chain: MAAAVGRLLRASVARHVSAIPWGISATAALRPAACGRTSLTNLLCSGSSQAKLFSTSSSCHAPAVTQHAPYFKGTAVVNGEFKDLSLDDFKGKYLVLFFYPLDFTFVCPTEIVAFSDKANEFHDVNCEVVAVSVDSHFSHLAWINTPRKNGGLGHMNIALLSDLTKQISRDYGVLLEGSGLALRGLFIIDPNGVIKHLSVNDLPVGRSVEETLRLVKAFQYVETHGEVCPANWTPDSPTIKPSPAASKEYFQKVNQ
B8: Protein SSX3 (Homo sapiens), Q99909 (parent)
chain: MNGDDTFARRPTVGAQIPEKIQKAFDDIAKYFSKEEWEKMKVSEKIVYVYMKRKYEAMTKLGFKAILPSFMRNKRVTDFQGNDFDNDPNRGNQVQRPQMTFGRLQGIFPKIMPKKPAEEGNVSKEVPEASGPQNDGKQLCPPGKPTTSEKINMISGPKRGEHAWTHRLRERKQLVIYEEISDPEEDDE
partner: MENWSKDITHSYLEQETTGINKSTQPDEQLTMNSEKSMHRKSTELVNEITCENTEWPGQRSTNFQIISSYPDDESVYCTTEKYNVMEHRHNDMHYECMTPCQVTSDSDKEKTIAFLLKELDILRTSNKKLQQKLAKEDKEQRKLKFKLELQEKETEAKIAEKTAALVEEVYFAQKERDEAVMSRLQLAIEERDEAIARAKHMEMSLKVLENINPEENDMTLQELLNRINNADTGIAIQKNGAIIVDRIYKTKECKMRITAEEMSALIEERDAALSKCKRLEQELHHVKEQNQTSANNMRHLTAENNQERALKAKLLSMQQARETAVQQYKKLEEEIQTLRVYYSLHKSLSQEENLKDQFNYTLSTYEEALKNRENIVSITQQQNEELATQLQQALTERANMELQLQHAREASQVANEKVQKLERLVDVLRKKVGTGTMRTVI

Variants of: B1
Details: with spee_human SRM

| effect of a mutation on the interaction | Variant |
| --- | --- |
| with no effect | A89V |

Variants of: B2
Details: with ru1c_human SNRPC

| effect of a mutation on the interaction | Variant |
| --- | --- |
| with no effect | P122R |

Variants of: B2
Details: with ubs3b_human UBASH3B

| effect of a mutation on the interaction | Variant |
| --- | --- |
| disrupting interaction strength | P122R |

Variants of: B2
Details: with ub2v1_human UBE2V1, Q13404
ub2v1_human UBE2V1, Q13404, sequence (Q13404 whole entry): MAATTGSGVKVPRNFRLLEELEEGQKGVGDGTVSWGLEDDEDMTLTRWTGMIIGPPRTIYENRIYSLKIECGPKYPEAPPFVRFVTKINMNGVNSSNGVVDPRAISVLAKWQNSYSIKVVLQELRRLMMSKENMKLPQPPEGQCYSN

| effect of a mutation on the interaction | Variant |
| --- | --- |
| disrupting interaction strength | P122R |

Variants of: B3
Details: with syne4_human SYNE4, Q8N205

| effect of a mutation on the interaction | Variant |
| --- | --- |
| with no effect | R124Q |
| with no effect | R176H |

Variants of: B4
Details: with sat1_human SAT1, P21673
sat1_human SAT1, P21673, sequence (P21673 whole entry): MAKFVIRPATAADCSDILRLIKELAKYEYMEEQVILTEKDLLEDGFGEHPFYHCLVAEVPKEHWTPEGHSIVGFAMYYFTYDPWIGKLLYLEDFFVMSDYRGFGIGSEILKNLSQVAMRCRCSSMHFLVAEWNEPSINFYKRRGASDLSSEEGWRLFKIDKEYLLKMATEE

| effect of a mutation on the interaction | Variant |
| --- | --- |
| with no effect | T224I |

Variants of: B5
Details: with FAM124A

| effect of a mutation on the interaction | Variant |
| --- | --- |
| with no effect | N267S |

Variants of: B6
Details: with tnpo2_human TNPO2, O14787

| effect of a mutation on the interaction | Variant |
| --- | --- |
| with no effect | G111A |
| disrupting interaction strength | M181V |

Variants of: B7
Details: with gors2_human GORASP2, Q9H8Y8

| effect of a mutation on the interaction | Variant |
| --- | --- |
| with no effect | G173C |

Variants of: B8
Details: with mipo1_human MIPOL1, Q8TD10

| Variant | effect of a mutation on the interaction |
| --- | --- |
| T77A | with no effect |

— IntAct's records for PubMed 31515488
